Values of other authors as cited in article PMC11170211.

Test system: Asp102
Assay: NMR

Question: With “alpha-lytic protease (not stated in the article (described only as bacterial); Lysobacter enzymogenes from outside knowledge)” as the substance, how does the pKa read?
Answer: Its pKa is “below 1.5”.
